For 15 molecules, koff, kon and Kd results are on record in patent publication US20250136677A1 (ZOETIS SERVICES, published 2025).

In assay [1] the target is T1, canine IL-31 protein (Canine_IL31) (canine).
T1 chain: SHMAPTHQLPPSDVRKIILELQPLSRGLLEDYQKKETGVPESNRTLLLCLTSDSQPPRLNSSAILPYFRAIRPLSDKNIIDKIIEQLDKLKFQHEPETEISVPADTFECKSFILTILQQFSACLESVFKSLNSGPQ
Briefly: SPR (Biacore), IL-31 on chip, 1:1 fit. On the technique in general: Surface plasmon resonance follows binding to a sensor surface in real time, without labels.

Assay [2] deals with T2, wildtype feline IL-31 protein (Feline_IL31_wildtype) (feline).
T2 construct: Full length feline IL-31 with C-terminal His tag, secreted from ExpiCHO cells; also called fIL-31
T2 chain: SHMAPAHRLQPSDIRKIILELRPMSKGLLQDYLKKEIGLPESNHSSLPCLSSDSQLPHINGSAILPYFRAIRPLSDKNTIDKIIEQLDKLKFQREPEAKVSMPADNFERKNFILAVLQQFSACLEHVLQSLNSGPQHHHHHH
Kind of assay: SPR (Biacore), IL-31 on chip, 1:1 fit. The protocol: The affinity with which candidate mAbs bind canine and feline IL-31 was determined using surface plasmon resonance (SPR) on a Biacore system (Biocore Life Sciences (GE Healthcare), Uppsala, Sweden). To avoid affinity differences associated with differential surface preparation that can occur when immobilizing antibodies to surfaces; a strategy was employed where IL-31 was directly conjugated to the surface. Immobilization was obtained by amine coupling 5 μg/mL IL-31 using N-hydroxysuccinimide (NHS)/1-Ethyl-3-(3-dimethylaminopropyl) carbodiimide (EDC) chemistry. Chips were quenched with ethanolamine and the affinity with which all candidate mAbs bound to the immobilized IL-31 was evaluated. All curves were fit to a 1:1 model. […] Results for affinity measurements are described herein.

B1: Feline 15H05 1.1 FW2 (antibody, V domains shown)
VH: QVLLVQSGAEVRTPGASVKIFCKASGYSFTSYTIHWLRQAPAQGLEWMGNINPTSGYTENNQRFKDRLTLTADTSTNTAYMELSSLRSADTAMYYCARWGFKYDGEWSFDVWGAGTTVTVSS
VL: EIQMTQSPSSLSASPGDRVTITCRASQGISIWLSWYQQKPGNIPKVLINKASNLHIGVPSRFSGSGSGTDFTLTISSLEPEDAATYYCLQSQTYPLTFGGGTKLEIK
notes: also called felinized 15H05 1.1 FW2
For B1, in assay [1], the koff is 1.66e-07 s⁻¹ and the association rate constant (kon) stood at 384000 M⁻¹ s⁻¹. In addition, in assay [2], the Kd stood at 0.065 nM, the koff turned out to be 2.49e-05 s⁻¹ and the kon was 383000 M⁻¹ s⁻¹.

B2: Feline 15H05 1.1 Y49N (antibody, V domains shown)
VH: QVLLVQSGAEVRTPGASVKIFCKASGYSFTSYTIHWLRQAPAQGLEWMGNINPTSGYTENNQRFKDRLTLTADTSTNTAYMELSSLRSADTAMYYCARWGFKYDGEWSFDVWGAGTTVTVSS
VL: EIQMTQSPSSLSASPGDRVTITCRASQGISIWLSWYQQKPGKVPKLLINKASNLHIGVPSRFSGSGSGTDFTLTISSLEPEDAATYYCLQSQTYPLTFGGGTKLEIK
Take B2: in assay [2], the Kd was 39.5 nM, the koff is 0.00095 s⁻¹ and the kon is 24000 M⁻¹ s⁻¹.

B3: Feline 15H05 3.1 (antibody, V domains shown)
VH: QVLLVQSGAEVRKPGASVKIFCKASGYSFTSYTIHWLRQAPEQGLEWMGNINPTSGYTENNQRFKDRLTLTADTSTNTAYMELSSLRSADTAMYYCARWGFKYDGEWSFDVWGAGTTVTVSS
VL: EIQMTQSPSSLSASPGDRVTITCRASQGISIWLSWYQQKPGKVPKLLIYKASNLHIGVPSRFSGSGSGTDFTLTISSLEPEDAATYYCLQSQTYPLTFGGGTKLEIK
notes: Feline heavy and kappa constant regions
Consider B3, for which, in assay [1], the koff worked out at 2.11e-05 s⁻¹ and the kon worked out at 26500 M⁻¹ s⁻¹. In addition, in assay [2], binding was put at a Kd of 37.1 nM, the koff turned out to be 0.00166 s⁻¹ and the kon is 44700 M⁻¹ s⁻¹.

B4: Feline 15H05 1.1 FW1_2 (antibody, V domains shown)
VH: QVLLVQSGAEVRTPGASVKIFCKASGYSFTSYTIHWLRQAPAQGLEWMGNINPTSGYTENNQRFKDRLTLTADTSTNTAYMELSSLRSADTAMYYCARWGFKYDGEWSFDVWGAGTTVTVSS
VL: DIQMNQSPSSLSASLGDTITVTCRASQGISIWLSWYQQKPGNIPKVLINKASNLHIGVPSRFSGSGSGTDFTLTISSLEPEDAATYYCLQSQTYPLTFGGGTKLEIK
In assay [1], B4 had a koff of 3.82e-06 s⁻¹ and a kon of 6910 M⁻¹ s⁻¹. Also, in assay [2], the Kd was 0.887 nM, the koff turned out to be 6.7e-06 s⁻¹ and the kon came to 7560 M⁻¹ s⁻¹.

B5: Feline 15H05 1.1 FW1 (antibody, V domains shown)
VH: QVLLVQSGAEVRTPGASVKIFCKASGYSFTSYTIHWLRQAPAQGLEWMGNINPTSGYTENNQRFKDRLTLTADTSTNTAYMELSSLRSADTAMYYCARWGFKYDGEWSFDVWGAGTTVTVSS
VL: DIQMNQSPSSLSASLGDTITVTCRASQGISIWLSWYQQKPGKVPKLLIYKASNLHIGVPSRFSGSGSGTDFTLTISSLEPEDAATYYCLQSQTYPLTFGGGTKLEIK
In assay [1], B5 gave a koff of 0.0156 s⁻¹ and a kon of 19200 M⁻¹ s⁻¹. In assay [2], this molecule gave a Kd of 564 nM, a koff of 0.00286 s⁻¹ and a kon of 5060 M⁻¹ s⁻¹.

B6: Feline 15H05 3.3 (antibody, V domains shown)
VH: QVLLVQSGAEVRKPGASVKIFCKASGYSFTSYTIHWLRQAPEQGLEWMGNINPTSGYTENNQRFKDRLTLTADTSTNTAYMELSSLRSADTAMYYCARWGFKYDGEWSFDVWGAGTTVTVSS
VL: EVVLTQSSAFLSRTLKEKATITCRASQGISIWLSWYQQKPNQAPKLLVKKASNLHIGAPSRFSGSGSGTDFTLTISSPEPEDAATYYCLQSQTYPLTFGGGTKLGDQ
notes: as for B3
Regarding B6, in assay [2], the Kd was 11.6 nM, the koff amounted to 0.000886 s⁻¹ and the kon was determined as 76300 M⁻¹ s⁻¹.

B7: Feline 15H05 2.1 (antibody, V domains shown)
VH: QVLLVQSGAEVRTPGASVKIFCKASGYGFTSYTIHWVRQSPAQGLEWMGNINPTSGYTENNQRFKDRLTLTADTSTNTAYMELSSLRSADTAMYYCARWGFKYDGEWSFDVWGAGTTVTVSS
VL: EIQMTQSPSSLSASPGDRVTITCRASQGISIWLSWYQQKPGKVPKLLIYKASNLHIGVPSRFSGSGSGTDFTLTISSLEPEDAATYYCLQSQTYPLTFGGGTKLEIK
notes: as for B3
Take B7: in assay [1], the koff came to 0.000866 s⁻¹ and the kon worked out at 525000 M⁻¹ s⁻¹. In assay [2], this molecule showed a Kd of 22.3 nM, a koff of 0.00465 s⁻¹ and a kon of 208000 M⁻¹ s⁻¹.

B8: Feline 15H05 1.1 K42N (antibody, V domains shown)
VH: QVLLVQSGAEVRTPGASVKIFCKASGYSFTSYTIHWLRQAPAQGLEWMGNINPTSGYTENNQRFKDRLTLTADTSTNTAYMELSSLRSADTAMYYCARWGFKYDGEWSFDVWGAGTTVTVSS
VL: EIQMTQSPSSLSASPGDRVTITCRASQGISIWLSWYQQKPGNVPKLLIYKASNLHIGVPSRFSGSGSGTDFTLTISSLEPEDAATYYCLQSQTYPLTFGGGTKLEIK
Consider B8, for which, in assay [2], the Kd was 6770 nM, the koff was found to be 0.011 s⁻¹ and the kon is 1630 M⁻¹ s⁻¹.

B9: Feline 15H05 1.1 FW2_3 (antibody, V domains shown)
VH: QVLLVQSGAEVRTPGASVKIFCKASGYSFTSYTIHWLRQAPAQGLEWMGNINPTSGYTENNQRFKDRLTLTADTSTNTAYMELSSLRSADTAMYYCARWGFKYDGEWSFDVWGAGTTVTVSS
VL: EIQMTQSPSSLSASPGDRVTITCRASQGISIWLSWYQQKPGNIPKVLINKASNLHIGVPPRFSGSGSGTHFTLTITSLQPEDIATYYCLQSQTYPLTFGGGTKLEIK
In assay [1], B9 showed a koff of 0.00193 s⁻¹ and a kon of 9050 M⁻¹ s⁻¹. In assay [2], this molecule displayed a Kd of 123 nM, a koff of 0.00116 s⁻¹ and a kon of 9490 M⁻¹ s⁻¹.

B10: Feline 15H05 2.3 (antibody, V domains shown)
VH: QVLLVQSGAEVRTPGASVKIFCKASGYGFTSYTIHWVRQSPAQGLEWMGNINPTSGYTENNQRFKDRLTLTADTSTNTAYMELSSLRSADTAMYYCARWGFKYDGEWSFDVWGAGTTVTVSS
VL: EVVLTQSSAFLSRTLKEKATITCRASQGISIWLSWYQQKPNQAPKLLVKKASNLHIGAPSRFSGSGSGTDFTLTISSPEPEDAATYYCLQSQTYPLTFGGGTKLGDQ
notes: as for B3
In assay [2], B10 showed a Kd of 1.57 nM, a koff of 0.000535 s⁻¹ and a kon of 341000 M⁻¹ s⁻¹.

B11: Feline 15H05 1.1 V43I (antibody, V domains shown)
VH: QVLLVQSGAEVRTPGASVKIFCKASGYSFTSYTIHWLRQAPAQGLEWMGNINPTSGYTENNQRFKDRLTLTADTSTNTAYMELSSLRSADTAMYYCARWGFKYDGEWSFDVWGAGTTVTVSS
VL: EIQMTQSPSSLSASPGDRVTITCRASQGISIWLSWYQQKPGKIPKLLIYKASNLHIGVPSRFSGSGSGTDFTLTISSLEPEDAATYYCLQSQTYPLTFGGGTKLEIK
Take B11: in assay [2], the Kd stood at 13.6 nM, the koff came to 0.000401 s⁻¹ and the kon was 29400 M⁻¹ s⁻¹.

B12: Feline 15H05 1.1 (antibody, V domains shown)
VH: QVLLVQSGAEVRTPGASVKIFCKASGYSFTSYTIHWLRQAPAQGLEWMGNINPTSGYTENNQRFKDRLTLTADTSTNTAYMELSSLRSADTAMYYCARWGFKYDGEWSFDVWGAGTTVTVSS
VL: EIQMTQSPSSLSASPGDRVTITCRASQGISIWLSWYQQKPGKVPKLLIYKASNLHIGVPSRFSGSGSGTDFTLTISSLEPEDAATYYCLQSQTYPLTFGGGTKLEIK
notes: as for B3
With B12, in assay [1], the off-rate (koff) amounted to 1.36e-07 s⁻¹ and the kon came out at 27000 M⁻¹ s⁻¹. In assay [2], this molecule returned a Kd of 13.5 nM, a koff of 0.00131 s⁻¹ and a kon of 97100 M⁻¹ s⁻¹.

B13: Feline 15H05 1.1 K42N_V43I (antibody, V domains shown)
VH: QVLLVQSGAEVRTPGASVKIFCKASGYSFTSYTIHWLRQAPAQGLEWMGNINPTSGYTENNQRFKDRLTLTADTSTNTAYMELSSLRSADTAMYYCARWGFKYDGEWSFDVWGAGTTVTVSS
VL: EIQMTQSPSSLSASPGDRVTITCRASQGISIWLSWYQQKPGNIPKLLIYKASNLHIGVPSRFSGSGSGTDFTLTISSLEPEDAATYYCLQSQTYPLTFGGGTKLEIK
B13: in assay [2], binding was characterised by a dissociation constant (Kd) of 9.42 nM, the koff came out at 0.0022 s⁻¹ and the kon worked out at 234000 M⁻¹ s⁻¹.

B14: Feline 15H05 1.1 FW3 (antibody, V domains shown)
VH: QVLLVQSGAEVRTPGASVKIFCKASGYSFTSYTIHWLRQAPAQGLEWMGNINPTSGYTENNQRFKDRLTLTADTSTNTAYMELSSLRSADTAMYYCARWGFKYDGEWSFDVWGAGTTVTVSS
VL: EIQMTQSPSSLSASPGDRVTITCRASQGISIWLSWYQQKPGKVPKLLIYKASNLHIGVPPRFSGSGSGTHFTLTITSLQPEDIATYYCLQSQTYPLTFGGGTKLEIK
As to B14, in assay [1], the Kd is 0.13 nM, the koff came to 3.91e-07 s⁻¹ and the kon is 3000 M⁻¹ s⁻¹. In assay [2], this molecule returned a Kd of 0.0564 nM, a koff of 1.21e-05 s⁻¹ and a kon of 214000 M⁻¹ s⁻¹.

B15: Feline 15H05 1.1 L46V (antibody, V domains shown)
VH: QVLLVQSGAEVRTPGASVKIFCKASGYSFTSYTIHWLRQAPAQGLEWMGNINPTSGYTENNQRFKDRLTLTADTSTNTAYMELSSLRSADTAMYYCARWGFKYDGEWSFDVWGAGTTVTVSS
VL: EIQMTQSPSSLSASPGDRVTITCRASQGISIWLSWYQQKPGKVPKVLIYKASNLHIGVPSRFSGSGSGTDFTLTISSLEPEDAATYYCLQSQTYPLTFGGGTKLEIK
Take B15: in assay [2], binding was put at a Kd of 22.8 nM, the koff is 0.000811 s⁻¹ and the kon was 35500 M⁻¹ s⁻¹.

Broadly, the koff is the rate constant with which the complex falls apart. Broadly, the kon is a measure of how fast the partners come together. Low readings indicate slow association, high ones fast association. Broadly, the Kd is the equilibrium constant for the complex coming apart. The low end stands for tighter binding, the high end for weaker binding.
